Assay results taken from patent US20180111972A1 (Stanford University, published 2018).
Where two headings read alike, the source gives them in different places.

Assays:
[1] = target: T1, human VEGFR on human umbilical vein endothelial cells (HUVECs) (human, UniProt P35968 20-1356); test: flow cytometry on HUVECs, soluble ligand titrated 3 h at 4 C, anti-FLAG-PE
T1 construct: The phosphorylation blots on these cells detect VEGFR2

[2] = target: T1, human VEGFR on human umbilical vein …; test: as above; remark: listed apart in the source
Method: (§1) To test binding to VEGFR, human umbilical vein endothelial cells (HUVECs) and murine angiosarcoma endothelial cells (SVR) were used.
(§2) Cell-binding assay. Varying concentrations of scPDGF, scVEGF, and PDGF/VEGF ligands were incubated with 25,000 PDGFR- or VEGFR-expressing cells in binding buffer (20 mM Tris pH 7.5 with 1 mM MgCl₂, 1 mM MnCl₂, 2 mM CaCl₂, 100 mM NaCl, and 1 mg/ml BSA) for 5 hr (BJ-5ta, NIH/3T3) or 3 hr (HUVEC, SVR) at 4° C. Cells were washed and pelleted, then incubated with 1:100 R-PE-conjugated anti-FLAG antibody (Prozyme) for 15 min on ice. Cells were washed, pelleted, and resuspended in binding buffer immediately before analysis by flow cytometry using BD Accuri C6. Flow cytometry data were analyzed using BD Accuri C6 software, and statistical analysis was performed using GraphPad Prism 6.

[3] = target: T2, mouse VEGFR on SVR murine angiosarcoma endothelial cells (mouse); test: flow cytometry on SVR cells, soluble ligand titrated 3 h at 4 C, anti-FLAG-PE
T2 construct: whole, on cells
Method: as §1, §2

[4] = target: T1, human VEGFR on human umbilical vein …; test: flow cytometry titration of the soluble FLAG-tagged protein on HUVECs, anti-FLAG detection
Method: as §1, §2

[5] = target: T3, PDGFRβ-His (residues 1-314 of PDGFR-β with C-terminal hexahistidine tag) (human, UniProt P09619 33-314); test: titration on yeast-displayed scPDGF, flow cytometry, anti-His
T3 construct: range 1-314; Monovalent form, expressed in FreeStyle 293-F cells; also called PDGRβ-His; PDGFR-His
Method: (§3) Cells were incubated in large enough volumes to avoid ligand depletion and appropriate time to reach equilibrium. During the last hour of incubation, yeast were incubated with 1:250 dilution of chicken anti-c-Myc (Invitrogen) in PBSA. […] Yeast were washed, pelleted, and resuspended in PBSA immediately before analysis by flow cytometry using BD FACSCalibur or BD Accuri C6. Flow cytometry data were analyzed using FlowJo (v7.6.1 and v10, Treestar) or BD Accuri C6 software. Statistical analysis was performed using GraphPad Prism 6.
(§4) Bound protein was detected using fluorescently-labeled anti-His and anti-mouse-Fc antibodies.

[6] = target: T4, PDGFRβ-Fc (residues 1-314 of PDGFR-β fused to the Fc region of mouse IgG2a) (human; mouse, UniProt P09619 33-314); test: titration on yeast-displayed scPDGF, flow cytometry, anti-mouse-Fc
T4 construct: range 1-314; Expressed in FreeStyle 293-F cells; also called PDGRβ-Fc; PDGFR-Fc; not shown: Fc region of mouse IgG2a
Method: as §3, §4

[7] = target: T4, PDGFRβ-Fc (residues 1-314 of PDGFR-β …); test: yeast surface display titration; PDGF taken as yeast-displayed scPDGF
[8] = target: T3, PDGFRβ-His (residues 1-314 of PDGFR-β …); test: KinExA
Method: (§5) For KinExA measurements, a constant amount of PDGF/VEGF ligand is titrated with differing concentrations of PDGRβ-His or VEGFR2-His. The solutions are incubated for an appropriate amount of time to allow the ligand-receptor binding reaction to reach equilibrium. The solution is then briefly exposed to a solid support containing immobilized PDGFR or VEGFR, which captures unbound ligand. The amount of ligand bound to the solid support is then detected using a fluorescently-labeled antibody. […] For each binding interaction measured, curves for two concentrations of the constant ligand are performed. By performing two experiments with fixed ligand concentrations above and below the Kd, and fitting both sets of data with a nonlinear regression analysis, a more accurate measurement for the affinity can be obtained.
(§6) Kinetic Exclusion Assay (KinExA). All experiments were performed on a KinExA 3200 instrument with siliconized flow cell (Sapidyne Instruments Inc). […] 30 μg of receptor was incubated in 1 ml of 50 mM sodium bicarbonate, 0.5 M sodium citrate buffer, pH 8.3, for 2 hr at room temperature with rocking. Beads were allowed to settle by gravity and liquid removed. […] Captured PDGF/VEGF ligands were detected using a Dylight 649-conjugated anti-FLAG antibody (Rockland) at 1:1000 dilution in sample buffer. […] Data were analyzed with KinExA Pro Software.

[9] = target: T5, VEGFR2-His (residues 1-764 of VEGFR2, Ig-like domains 1-7, with hexahistidine tag) (human, UniProt P35968 20-764); test: KinExA
T5 construct: range 1-764; Monomeric form, expressed in FreeStyle 293-F cells; also called VEGFR-His
Method: as §5, §6

[10] = target: T1, human VEGFR on human umbilical vein …; test: cell-based or functional assay
[11] = target: PDGFRβ on DiscoveRx PathHunter U2OS PDGFRβ reporter cells (UniProt P09619 33-1106, limits assumed); test: cell-based or functional assay
[12] = target: T1, human VEGFR on human umbilical vein …; test: flow cytometry on HUVECs
Method: as §1, §2

[13] = target: T2, mouse VEGFR on SVR murine angiosarcoma …; test: flow cytometry on SVR cells
Method: as §1, §2

[14] = target: T3, PDGFRβ-His (residues 1-314 of PDGFR-β …); test: KinExA Kinetics Injection
Method: (§7) Additionally, the kinetic parameter kₒₙ can be determined by using a “kinetics injection” experiment. A constant concentration of PDGF/VEGF ligand is injected with an equal volume of differing concentrations of PDGRβ-His or VEGFR2-His. The two solutions are allowed to mix briefly (several seconds) in the time required for the instrument to deliver the mixture to the detection bead column. The pre-equilibrium concentrations of free ligand is fit to the standard bimolecular rate equation to obtain kₒₙ.
(§8) Kinetic Exclusion Assay (KinExA). All experiments were performed on a KinExA 3200 instrument with siliconized flow cell (Sapidyne Instruments Inc). […] 30 μg of receptor was incubated in 1 ml of 50 mM sodium bicarbonate, 0.5 M sodium citrate buffer, pH 8.3, for 2 hr at room temperature with rocking. Beads were allowed to settle by gravity and liquid removed. Beads were blocked by incubating in 1 ml of 10 mg/ml BSA in 1 M Tris buffer, pH 8.0, for 1 hr at room temperature with rocking, and stored in blocking buffer at 4° C. for up to one week until use. Running buffer contained PBS with 10 mM imidazole and 0.02% sodium azide. Samples were prepared in running buffer with 1 mg/ml BSA. Binding reactions were prepared with a fixed concentration of PDGF/VEGF ligands and dilution series of PDGFR or VEGFR. Captured PDGF/VEGF ligands were detected using a Dylight 649-conjugated anti-FLAG antibody (Rockland) at 1:1000 dilution in sample buffer. Kinetic experiments were performed with the “Kinetics Injection” method defined in the KinExA software. Data were analyzed with KinExA Pro Software. The Kd was determined from a global fit of two concentration curves using the “n-curve analysis” tool and the titrant concentrations as reference. […] The kₒₙ was calculated as a fit of the pre-equilibrium free ligand concentrations to the bimolecular binding equation using the “Kinetics Injection” tool.

[15] = target: T5, VEGFR2-His (residues 1-764 of VEGFR2, …); test: KinExA Kinetics Injection
Method: as §7, §8

[16] = target: T3, PDGFRβ-His (residues 1-314 of PDGFR-β …); test: KinExA, calculated from Kd and kon
Method: (§9) By performing two experiments with fixed ligand concentrations above and below the Kd, and fitting both sets of data with a nonlinear regression analysis, a more accurate measurement for the affinity can be obtained.
as §7, §8

[17] = target: T5, VEGFR2-His (residues 1-764 of VEGFR2, …); test: KinExA, calculated from Kd and kon
Method: as §9, §7, §8

[18] = target: T3, PDGFRβ-His (residues 1-314 of PDGFR-β …); test: KinExA, equilibrium titration in solution, n-curve analysis
Method: as §5
(§10) Kinetic Exclusion Assay (KinExA). All experiments were performed on a KinExA 3200 instrument with siliconized flow cell (Sapidyne Instruments Inc). […] 30 μg of receptor was incubated in 1 ml of 50 mM sodium bicarbonate, 0.5 M sodium citrate buffer, pH 8.3, for 2 hr at room temperature with rocking. Beads were allowed to settle by gravity and liquid removed. Beads were blocked by incubating in 1 ml of 10 mg/ml BSA in 1 M Tris buffer, pH 8.0, for 1 hr at room temperature with rocking, and stored in blocking buffer at 4° C. for up to one week until use. Running buffer contained PBS with 10 mM imidazole and 0.02% sodium azide. Samples were prepared in running buffer with 1 mg/ml BSA. Binding reactions were prepared with a fixed concentration of PDGF/VEGF ligands and dilution series of PDGFR or VEGFR. Captured PDGF/VEGF ligands were detected using a Dylight 649-conjugated anti-FLAG antibody (Rockland) at 1:1000 dilution in sample buffer. Kinetic experiments were performed with the “Kinetics Injection” method defined in the KinExA software. Data were analyzed with KinExA Pro Software.

[19] = target: T5, VEGFR2-His (residues 1-764 of VEGFR2, …); test: as above
Method: as §5, §10

[20] = target: T2, mouse VEGFR on SVR murine angiosarcoma …; test: flow cytometry titration of the soluble FLAG-tagged protein on SVR cells, anti-FLAG detection
Method: as §1, §2

T1 sequence (P35968 20-1356 limits assumed): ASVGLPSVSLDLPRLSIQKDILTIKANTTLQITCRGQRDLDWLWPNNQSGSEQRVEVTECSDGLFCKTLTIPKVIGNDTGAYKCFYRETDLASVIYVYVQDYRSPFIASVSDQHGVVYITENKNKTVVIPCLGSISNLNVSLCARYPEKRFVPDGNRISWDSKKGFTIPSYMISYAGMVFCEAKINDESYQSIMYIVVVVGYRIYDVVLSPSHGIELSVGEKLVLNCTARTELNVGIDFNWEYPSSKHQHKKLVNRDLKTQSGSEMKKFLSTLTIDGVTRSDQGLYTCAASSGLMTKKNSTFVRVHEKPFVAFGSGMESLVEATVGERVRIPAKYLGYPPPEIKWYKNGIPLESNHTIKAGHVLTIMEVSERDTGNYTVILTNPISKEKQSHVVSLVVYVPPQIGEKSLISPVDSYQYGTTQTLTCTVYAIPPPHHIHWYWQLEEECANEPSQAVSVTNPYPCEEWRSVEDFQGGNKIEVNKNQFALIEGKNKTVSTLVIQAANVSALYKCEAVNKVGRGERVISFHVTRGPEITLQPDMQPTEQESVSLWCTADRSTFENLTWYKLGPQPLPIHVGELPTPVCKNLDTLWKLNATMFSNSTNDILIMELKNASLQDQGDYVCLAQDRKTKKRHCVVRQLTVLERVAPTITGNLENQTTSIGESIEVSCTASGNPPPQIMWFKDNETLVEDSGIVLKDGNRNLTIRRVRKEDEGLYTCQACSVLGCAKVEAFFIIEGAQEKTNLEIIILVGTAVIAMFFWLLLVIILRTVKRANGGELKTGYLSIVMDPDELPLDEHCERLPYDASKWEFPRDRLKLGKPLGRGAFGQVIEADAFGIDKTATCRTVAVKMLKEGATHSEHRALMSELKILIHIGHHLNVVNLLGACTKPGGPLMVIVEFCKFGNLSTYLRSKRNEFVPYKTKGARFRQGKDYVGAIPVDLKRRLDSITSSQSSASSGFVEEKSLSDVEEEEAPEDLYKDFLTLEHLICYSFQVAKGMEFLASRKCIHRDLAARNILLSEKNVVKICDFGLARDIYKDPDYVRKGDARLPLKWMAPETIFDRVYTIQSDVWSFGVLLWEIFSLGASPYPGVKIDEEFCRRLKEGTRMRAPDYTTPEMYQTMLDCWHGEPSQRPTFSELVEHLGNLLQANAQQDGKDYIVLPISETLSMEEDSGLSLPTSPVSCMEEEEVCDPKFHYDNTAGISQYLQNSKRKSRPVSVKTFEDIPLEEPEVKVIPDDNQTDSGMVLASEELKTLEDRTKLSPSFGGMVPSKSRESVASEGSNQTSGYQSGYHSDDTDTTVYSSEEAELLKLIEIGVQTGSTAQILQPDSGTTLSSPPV
T2 sequence (P35918 20-1345): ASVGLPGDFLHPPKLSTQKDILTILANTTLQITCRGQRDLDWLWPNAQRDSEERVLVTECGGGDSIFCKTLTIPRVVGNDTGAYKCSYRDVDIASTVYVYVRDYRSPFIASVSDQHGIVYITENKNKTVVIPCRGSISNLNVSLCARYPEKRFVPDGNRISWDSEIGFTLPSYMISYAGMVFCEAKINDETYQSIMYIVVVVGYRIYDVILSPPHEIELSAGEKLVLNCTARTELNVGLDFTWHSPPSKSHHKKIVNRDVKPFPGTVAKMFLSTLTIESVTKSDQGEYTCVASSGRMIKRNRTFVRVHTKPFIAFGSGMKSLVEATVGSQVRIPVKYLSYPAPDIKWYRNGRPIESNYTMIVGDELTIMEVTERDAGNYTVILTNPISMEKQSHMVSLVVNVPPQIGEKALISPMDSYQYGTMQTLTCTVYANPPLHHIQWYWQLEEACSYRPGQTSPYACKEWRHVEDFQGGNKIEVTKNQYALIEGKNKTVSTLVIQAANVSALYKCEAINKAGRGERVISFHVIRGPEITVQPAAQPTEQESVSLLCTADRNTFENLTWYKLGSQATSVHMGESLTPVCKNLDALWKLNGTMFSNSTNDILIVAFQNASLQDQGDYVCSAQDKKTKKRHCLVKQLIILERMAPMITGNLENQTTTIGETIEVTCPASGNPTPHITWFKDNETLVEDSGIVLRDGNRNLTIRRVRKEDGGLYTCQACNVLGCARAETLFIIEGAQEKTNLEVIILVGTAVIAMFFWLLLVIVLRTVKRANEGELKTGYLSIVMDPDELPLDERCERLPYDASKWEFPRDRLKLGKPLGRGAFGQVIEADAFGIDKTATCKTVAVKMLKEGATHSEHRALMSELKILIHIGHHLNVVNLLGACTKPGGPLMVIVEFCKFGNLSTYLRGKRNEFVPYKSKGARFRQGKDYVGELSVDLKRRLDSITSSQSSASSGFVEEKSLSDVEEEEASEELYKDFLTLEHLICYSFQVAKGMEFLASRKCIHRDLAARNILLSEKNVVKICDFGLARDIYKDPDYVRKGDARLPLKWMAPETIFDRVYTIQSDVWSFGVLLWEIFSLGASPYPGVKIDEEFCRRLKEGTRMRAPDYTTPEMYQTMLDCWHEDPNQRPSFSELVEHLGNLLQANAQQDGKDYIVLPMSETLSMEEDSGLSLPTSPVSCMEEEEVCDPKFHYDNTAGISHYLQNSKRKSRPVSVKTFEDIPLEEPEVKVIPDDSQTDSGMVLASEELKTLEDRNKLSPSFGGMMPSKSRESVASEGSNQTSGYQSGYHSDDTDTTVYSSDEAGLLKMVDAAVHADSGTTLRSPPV
T5 sequence (P35968 other isoform, or with tags, fused parts or gaps limits assumed, form in doubt): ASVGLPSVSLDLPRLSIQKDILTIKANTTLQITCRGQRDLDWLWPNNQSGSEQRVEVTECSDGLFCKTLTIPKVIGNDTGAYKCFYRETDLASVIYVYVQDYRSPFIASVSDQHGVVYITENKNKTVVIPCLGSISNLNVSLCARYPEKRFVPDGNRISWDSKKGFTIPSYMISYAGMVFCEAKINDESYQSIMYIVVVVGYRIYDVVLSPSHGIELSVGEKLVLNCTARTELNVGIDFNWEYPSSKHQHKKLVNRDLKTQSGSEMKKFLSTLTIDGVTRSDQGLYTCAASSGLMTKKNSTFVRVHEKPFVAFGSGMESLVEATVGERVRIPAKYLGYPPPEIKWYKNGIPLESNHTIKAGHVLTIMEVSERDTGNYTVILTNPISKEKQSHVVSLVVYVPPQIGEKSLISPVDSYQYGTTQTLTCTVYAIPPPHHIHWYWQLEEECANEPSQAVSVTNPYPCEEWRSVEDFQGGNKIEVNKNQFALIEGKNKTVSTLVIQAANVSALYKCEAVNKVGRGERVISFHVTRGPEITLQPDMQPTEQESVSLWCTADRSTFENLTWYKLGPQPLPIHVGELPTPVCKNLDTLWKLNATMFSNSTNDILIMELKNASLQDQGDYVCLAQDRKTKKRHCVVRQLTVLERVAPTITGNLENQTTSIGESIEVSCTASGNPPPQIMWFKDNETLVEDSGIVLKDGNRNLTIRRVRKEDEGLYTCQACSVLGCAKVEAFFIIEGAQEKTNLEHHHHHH
T4 sequence (P09619 33-314 limits assumed, form in doubt): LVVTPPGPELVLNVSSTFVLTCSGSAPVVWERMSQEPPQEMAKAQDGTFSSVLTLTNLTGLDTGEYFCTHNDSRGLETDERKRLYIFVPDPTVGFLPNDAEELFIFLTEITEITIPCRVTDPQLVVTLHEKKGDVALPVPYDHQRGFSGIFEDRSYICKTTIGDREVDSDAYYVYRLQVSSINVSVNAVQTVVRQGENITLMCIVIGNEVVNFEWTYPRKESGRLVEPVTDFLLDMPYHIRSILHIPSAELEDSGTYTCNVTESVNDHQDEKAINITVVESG

Row | Binder | Kd [1] [nM] | Kd [2] [nM] | Kd [3] [nM] | EC50 (read off the curve) [4] [nM] | Kd [5] [nM] | Kd [6] [nM] | Kd [7] [nM] | fold improvement in binding affinity compared to PV6 [8] [fold] | fold improvement in affinity compared to PV6 [9] [fold] | IC50 of inhibition of HUVEC proliferation induced by 0.5 nM VEGF165, alamarBlue [10] [nM] | IC50 of inhibition of stimulation by 0.5 nM PDGF-BB, PathHunter PDGFRβ reporter cells [11] [nM] | fold improvement in affinity compared to PV6 [12] [fold] | fold improvement in affinity compared to PV6 [13] [fold] | kon [14] [M⁻¹ s⁻¹] | kon [15] [M⁻¹ s⁻¹] | koff [16] [s⁻¹] | koff [17] [s⁻¹] | Kd [18] [nM] | Kd [19] [nM] | EC50 (read off the curve) [20] [nM]
1 | scVEGFwt, single-chain version of VEGF-A, soluble, FLAG and hexahistidine tags (ligand, Expressed in Pichia pastoris GS115; also called single-chain VEGF-A) DYKDDDDKEVVKFMDVYQRSYCHPIETLVDIFQEYPDEIEYIFKPSCVPLMRCGGCCNDEGLECVPTEESNITMQIMRIKPHQGQHIGEMSFLQHNKCECRPKKDGSTSGSGKSSEGKGEVVKFMDVYQRSYCHPIETLVDIFQEYPDEIEYIFKPSCVPLMRCGGCCNDEGLECVPTEESNITMQIMRIKPHQGQHIGEMSFLQHNKCECRPKKDHHHHHH | 1.5 | 18 | 10 | ~10 | – | – | – | – | – | – | – | – | – | – | – | – | – | – | – | –
2 | scPDGF, yeast-displayed (ligand) IAEPAMIAECKTRTEVFEISRRLIDRTNANFLVWPPCVEVQRCSGCCNNRNVQCRPTQVQLRPVQVRKIEIVRKKPIFKKATVTLEDHLACKCETVAAGSTSGSGKSSEGKGIAEPAMIAECKTRTEVFEISRRLIDRTNANFLVWPPCVEVQRCSGCCNNRNVQCRPTQVQLRPVQVRKIEIVRKKPIFKKATVTLEDHLACKCETVAA | – | – | – | – | 310 | 0.028 | ~0.04 | – | – | – | – | – | – | – | – | – | – | – | – | –
3 | PVGS, soluble, FLAG and hexahistidine tags (designed binder, Secreted from S. cerevisiae YVH10 at 20 C and treated with Endo Hf) DYKDDDDKIAEPAMIAECHPIETLVDILQEYPDEIGYIFKPSCVPLMRCGGCCNNRNVQCRPTEESNITMQIMRIKPHRGQHIGEMSFLQHNKCRCETVAAGGGGSGGGGSGGGGSGGGGSEVVKFMDVYQRSYCKTRTEVFEISRRLIDATNANFLVWPPCVEVQRCSGCCNHEGLECVPTQVQLRPVQVRKIEFVRKKPIFKKATVTLEDHLACECRPKKDHHHHHH | – | 0.77 | 0.45 | ~0.8 | – | – | – | 130 | 2700 | 1.2 | 1.1 | 14 | 78 | 2e+07 | 680000 | 0.00013 | 9.6e-06 | 0.0067 | 0.014 | ~0.5
